This passage reports ratio to parent results from publication PMC10973816.

First the molecules themselves.
B1: mouse mGluR6 (metabotropic glutamate receptor 6), wild type, complex N-glycosylated form (upper dimer band, band C) [modified: complex N-glycosylation (Endo H-resistant, PNGase F-sensitive); N-glycosylation sites N290, N445 … (parent)
chain 1: AGSVRLAGGLTLGGLFPVHARGAAGRACGTLKKEQGVHRLEAMLYALDRINADPELLPGVRLGARLLDTCSRDTYALEQALSFVQALIRGRGDGEEASVRCPGGVPPLRAAPPERVVAVVGASASSVSIMVANVLRLFAIPQISYASTAPELSDSTRYDFFSRVVPPDSYQAQAMVDIVRALGWNYVSTLASEGNYGESGVEAFVQISREAGGVCIAQSIKIPREPKPGEFHKVIRRLMETPNARGIIIFANEDDIRRVLEATRQANLTGHFLWVGSDSWGSKISPILNLEEEAVGAITILPKRASIDGFDQYFMTRSLENNRRNIWFAEFWEENFNCKLTSSGGQSDDSTRKCTGEERIGQDSTYEQEGKVQFVIDAVYAIAHALHSMHQALCPGHTGLCPAMEPTDGRTLLHYIRAVRFNGSAGTPVMFNENGDAPGRYDIFQYQATNGSASSGGYQAVGQWAEALRLDMEALQWSGDPHEVPPSQCSLPCGPGERKKMVKGVPCCWHCEACDGYRFQVDEFTCEACPGHMRPTPNHTGCRPTPVVRLTWSSPWAALPLLLAVLGIMATTTIIATFMRHNDTPIVRASGRELSYVLLTGIFLIYAITFLMVAEPCAAVCASRRLLLGLGTTLSYSALLTKTNRIYRIFEQGKRSVTPPPFISPTSQLVITFGLTSLQVVGVIAWLGAQPPHSVIDYEEQRTVDPEQARGVLKCDMSDLSLIGCLGYSLLLMVTCTVYAIKARGVPETFNEAKPIGFTMYTTCIIWLAFVPIFFGTAQSAEKIYIQTTTLTVSLSLSASVSLGMLYVPKTYVILFHPEQNVQKRKRSLKKTSTMAAPPKSENSEDAK
chain 2: DCWLIEGDKGYVWLAICSQNQPPYETIPQHINSTVHDLRLNENKLKAVLYSSLNRFGNLTDLNLTKNEISYIEDGAFLGQTSLQVLQLGYNRLSNLTEGMLRGMSRLQFLFVQHNLIEVVTPTAFSECPSLISIDLSSNRLSRLDGATFASLASLMVCELAGNPFNCECDLFGFLAWLVVFNNVTKNYDRLQCESPREFAGYPLLVPRPYHSLNAITVLQAKCRNGSMPARPVSHPTPYSTDAQREPDENSGFNPDEILSVEPPASSTTDASAGPAIKLHQVTFTSATLVVIIPHPYSKMYVLVQYNNSYFSDVMTLKNKKEIVTLDKLRAHTEYTFCVTSLRNSRRFNHTCLTFTTRDLVPGDLAPSTSTTTHY
B2: mouse mGluR6 (metabotropic glutamate receptor 6), wild type, complex N-glycosylated form (upper dimer band, band C) [modified: complex N-glycosylation (Endo H-resistant, PNGase F-sensitive); N-glycosylation sites N290, N445 … (parent)
chain 1: B1 chain 1
chain 2: QGDCWLIEGDKGFVWLAICSQNQPPYEAIPQQINNTIVDLRLNENRIRSVQYASLSRFGNLTYLNLTKNEIGYIEDGAFSGQFNLQVLQLGYNRLRNLTEGMLRGLSKLEYLYLQANLIEVVMASAFWECPNIVNIDLSMNRIQQLGSGTFAGLTKLSVCEIYSNPFYCSCELLGFLRWLAAFTNATQTHDRVQCESPPVYAGYFLLGQGRHGHQRSILSKLQSVCTEGSYTAEVLGPPRPVPGRSQPGHSPPPPPPEPSDMPCADDECFSGDGTTPLVILTTLVPQTEARPSMKVKQLTQNSATIMVQLPSPFNRMYTLEQYNNSKSFTVSKLTQPQEEIRLTNLYTLTNYTYCVVSTSSGTHHNHTCLTICLPKPPSPPGPVPSPSTATHY

One experiment covers variants of B1. The experiment can be described thus: pull-down. The following applies: with ELFN2 extracellular domain fused to human Fc [mouse]; parent: 1; read off a plot.
Take chain 1 N422Q: the ratio to parent was found to be 0.04.

On to chain 1 N267Q, for which the ratio to parent turned out to be 0.52. Still for that read-out and setting: with chain 1 N538Q the figure was 0.32; with chain 1 N450Q, 0.32.

Another experiment covers variants of B2. As to the kind of experiment: pull-down. Conditions: with ELFN1 extracellular domain fused to human Fc [mouse]; parent: 1; read off a plot.
For chain 1 N450Q, the ratio to parent amounted to 0.6. On the same count and under the same terms, for chain 1 N538Q the value was 0.13; for chain 1 N267Q, 0.59; for chain 1 N422Q, 0.05.

The same experiment, now with this note: with ELFN1 extracellular domain fused to human Fc [mouse]; five times more transfected cells were used for 4Q; parent: 1; read off a plot.
chain 1 N267Q N422Q N450Q N538Q: the ratio to parent is 0.04.
